Nine molecules from publication PMC12177037 (Communications Biology, 2025) can be followed below.

By EC50 is commonly meant the concentration giving half of the maximal effect. Read a high EC50 as lower potency in that assay.

The chains are these.
B1: lysozyme-binding quenchbody (Qb-Lys), wild type (VHH)
VHH: DVQLVESGGGSVQAGGSLRLSCAASGYIASINYLGWFRQAPGKEREGVAAVSPAGGTPYYADSVKGRFTVSLDNAENTVYLQMNSLKPEDTALYYCAAARQGWYIPLNSYGYNYWGQGTQVTVSS
notes: the labelled, eluted form stood in the fluorescence assays; also called lysozyme quenchbody; source: NEBExpress cell-free E. coli protein synthesis (IVTT); not shown: Cys-tag, N-terminal, kept
B2: lysozyme quenchbody (Qb-Lys) Y110W (VHH)
VHH: DVQLVESGGGSVQAGGSLRLSCAASGYIASINYLGWFRQAPGKEREGVAAVSPAGGTPYYADSVKGRFTVSLDNAENTVYLQMNSLKPEDTALYYCAAARQGWYIPLNSWGYNYWGQGTQVTVSS
notes: as the VHH of m2 (nanobody chain of PDB 1ZVH in the cassette) with the stated change; source: NEBExpress cell-free E. coli protein synthesis (IVTT); not shown: Cys-tag, N-terminal, kept
B3: lysozyme quenchbody (Qb-Lys) Y104W (VHH)
VHH: DVQLVESGGGSVQAGGSLRLSCAASGYIASINYLGWFRQAPGKEREGVAAVSPAGGTPYYADSVKGRFTVSLDNAENTVYLQMNSLKPEDTALYYCAAARQGWWIPLNSYGYNYWGQGTQVTVSS
notes: as for B2
B4: lysozyme quenchbody (Qb-Lys) W103Y (VHH)
VHH: DVQLVESGGGSVQAGGSLRLSCAASGYIASINYLGWFRQAPGKEREGVAAVSPAGGTPYYADSVKGRFTVSLDNAENTVYLQMNSLKPEDTALYYCAAARQGYYIPLNSYGYNYWGQGTQVTVSS
notes: as for B2
B5: lysozyme quenchbody (Qb-Lys) Y27W (VHH)
VHH: DVQLVESGGGSVQAGGSLRLSCAASGWIASINYLGWFRQAPGKEREGVAAVSPAGGTPYYADSVKGRFTVSLDNAENTVYLQMNSLKPEDTALYYCAAARQGWYIPLNSYGYNYWGQGTQVTVSS
notes: as for B2
B6: lysozyme quenchbody (Qb-Lys) Y104W/Y110W (VHH)
VHH: DVQLVESGGGSVQAGGSLRLSCAASGYIASINYLGWFRQAPGKEREGVAAVSPAGGTPYYADSVKGRFTVSLDNAENTVYLQMNSLKPEDTALYYCAAARQGWWIPLNSWGYNYWGQGTQVTVSS
notes: as the VHH of m2 (nanobody chain of PDB 1ZVH in the cassette) with the stated changes; Member of the 'single, pairwise, and triple Y27W, Y104W and Y110W mutants'; the combination is counted out from that phrase; also called pairwise mutant Y104W, Y110W; source: NEBExpress cell-free E. coli protein synthesis (IVTT); not shown: Cys-tag, N-terminal, kept
B7: lysozyme quenchbody (Qb-Lys) Y27W/Y104W (VHH)
VHH: DVQLVESGGGSVQAGGSLRLSCAASGWIASINYLGWFRQAPGKEREGVAAVSPAGGTPYYADSVKGRFTVSLDNAENTVYLQMNSLKPEDTALYYCAAARQGWWIPLNSYGYNYWGQGTQVTVSS
notes: as the VHH of m2 (nanobody chain of PDB 1ZVH in the cassette) with the stated changes; Member of the 'single, pairwise, and triple Y27W, Y104W and Y110W mutants'; the combination is counted out from that phrase; also called pairwise mutant Y27W, Y104W; source: NEBExpress cell-free E. coli protein synthesis (IVTT); captured on anti-FLAG magnetic beads from the crude IVTT mixture (pull-down)
B8: lysozyme quenchbody (Qb-Lys) Y27W/Y110W (VHH)
VHH: DVQLVESGGGSVQAGGSLRLSCAASGWIASINYLGWFRQAPGKEREGVAAVSPAGGTPYYADSVKGRFTVSLDNAENTVYLQMNSLKPEDTALYYCAAARQGWYIPLNSWGYNYWGQGTQVTVSS
notes: as the VHH of m2 (nanobody chain of PDB 1ZVH in the cassette) with the stated changes; Member of the 'single, pairwise, and triple Y27W, Y104W and Y110W mutants'; the combination is counted out from that phrase; also called pairwise mutant Y27W, Y110W; source: NEBExpress cell-free E. coli protein synthesis (IVTT); not shown: Cys-tag, N-terminal, kept
B9: lysozyme quenchbody (Qb-Lys) Y27W/Y104W/Y110W (VHH)
VHH: DVQLVESGGGSVQAGGSLRLSCAASGWIASINYLGWFRQAPGKEREGVAAVSPAGGTPYYADSVKGRFTVSLDNAENTVYLQMNSLKPEDTALYYCAAARQGWWIPLNSWGYNYWGQGTQVTVSS
notes: as the VHH of m2 (nanobody chain of PDB 1ZVH in the cassette) with the stated changes; also called triple mutant Y27W, Y104W, Y110W; source: NEBExpress cell-free E. coli protein synthesis (IVTT); captured on anti-FLAG magnetic beads from the crude IVTT mixture (pull-down)

T1 sequence (P00698 19-147): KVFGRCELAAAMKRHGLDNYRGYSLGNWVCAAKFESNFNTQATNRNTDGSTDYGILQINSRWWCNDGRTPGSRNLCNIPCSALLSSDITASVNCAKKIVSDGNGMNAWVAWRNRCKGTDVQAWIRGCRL

One assay addresses T1, lysozyme (Gallus gallus (Chicken)., UniProt P00698).
T1 construct: lysozyme, ~15 kDa on SDS-PAGE
The assay is described as follows: fluorescence intensity plate assay at one antigen concentration (fold-sense); 20 nM TAMRA-labelled quenchbody variants in PBS/0.05% Tween-20 with and without antigen (500 nM lysozyme or MBP in Fig. 3B and 3E; concentration not stated for Fig. 3C and 3F); fold-sense = fluorescence with antigen relative to 0 nM antigen. The conditions noted are these: both partners purified.
As to B1, the “fold-sense (fluorescence with antigen relative to without)” value is 1.3 fold.

For the molecule B2, the “fold-sense (fluorescence with antigen relative to without)” value stood at 1.7 fold.

The next assay has as its target T1, lysozyme. Kind of assay: other fluorescence titration; 20 nM TAMRA-labelled quenchbody in PBS/0.05% Tween-20 with 1-8000 nM antigen, 1 h at room temperature (legend: 60 min, 25 °C), 384-well plate, excitation 535 ± 20 nm, emission 585 ± 30 nm; fit to single site-specific binding with Hill slope; EC50 as a proxy for KD. As to conditions: both partners purified.
For B1, the response was half-maximal at 7 nM (EC50). That is a single-digit nanomolar value.

The target of another assay is T1, lysozyme. The assay is described as follows: pull-down; FLAG-tagged quenchbody from the crude IVTT mixture bound to anti-FLAG magnetic agarose beads, combined with 100 uL of 1 uM MBP or 10 uM lysozyme, 30 min, room temperature, 1200 rpm; 6 washes with PBS; eluted with 3x FLAG peptide; reducing SDS-PAGE; semi-quantitative comparison with the wild type. As to conditions: one partner purified.
As to B3, the binding result is “binds”.

On to B4, for which the binding result is “binds”.

In the case of B5, the binding result is recorded as “binds”.

As to B6, the binding result is reported as “binds”.

For the molecule B7, the binding result is “binds”.

B8: the binding result is “binds”.

On to B9, for which the binding result is on record as “binds”.
